PMC7525064, “Transcriptome Analysis of Different Tissues Reveals Key Genes Associated With Galanthamine Biosynthesis in Lycoris longituba” (Frontiers in Plant Science, 2020)

Substrate: Oc1ccc(CCNCc2ccc(O)c(O)c2)cc1
Assay: purified protein
Assay type: biochemical, Lycoris longituba
Settings: 200 μM AdoMet, 50 μM-2 mM norbelladine, 30 mM potassium phosphate pH 8.0, 30°C, 2 h

B1: LlOMT (Lycoris longituba O-Methyltransferase) (Lycoris longituba) (protein)
chain: MGASQDDYALIHKNILHSEDLLKYILETSVYPREHEQLKGLREVTEKHEWSMALVAADEGLFLSMLLKLMNAKRTIEIGVYTGYSLLTTALALPEDGKITAIDVNKSYFEIGLPFIQKAGVEHKINFIESEALPVLDQMLQEMKEEDLYDFAFVDADKPNYANYHERLVKLVRVGGAIVYDNTLWFGTVAFPEYPGLHPEEEECRVSFRNLNKLLAADPRVEISQVSIGDGLTICRRLY
B1 was tested, and the Km was 317 ± 17 µM.
